Tests used:
[1] = Ca2+-responsive mFAP Ca2+ titrations; type: binding
Method: In measuring Ca^2+ affinity of mFAPs on a Synergy Neo2 hybrid multi-mode reader (Fig. 4d, e, f and Supplementary Figs. 10c, f, i, 11c, f, i, 13c, f, i, 16b), large-scale purified proteins[49] were aliquoted in technical triplicate to a final concentration of 500 nM with 5.00 μM DFHBI in eleven serial dilutions ( 10 dilution factor) of CaCl2 (Sigma Aldrich) starting from either 900 mM or 90.0 mM CaCl2 (diluted using high-salt Tev cleavage buffer) including a twelfth condition without CaCl2. Final volumes were 200 μL in flat bottom, black polystyrene, non-binding surface 96-well microplates (Corning 3650). Fluorescence endpoints were measured using excitation wavelength λex = 484 nm and emission wavelength λem = 508 nm. Background fluorescence endpoints of wells with identical chromophore and CaCl2 concentrations lacking protein (substituted for equivalent volumes of high-salt Tev cleavage buffer) were measured in technical triplicate, averaged per condition, and subtracted from protein measurement averages of the same conditions.
For Ca^2+ titrations of EF4n_mFAP2a and EF4n_mFAP2b (Supplementary Fig. 13c), a small amount of Chelex 100 sodium form (Sigma Aldrich) was added to purified protein (produced by large-scale protein purification and SEC purification[49]) and nutated at 4 °C overnight. EF4n_mFAP2a was aliquoted in technical triplicate to a final concentration of 8.00 μM with 80.0 μM DFHBI and EF4n_mFAP2b was aliquoted in technical triplicate to a final concentration of 6.25 μM with 43.4 μM DFHBI, in eleven serial dilutions ( 10 dilution factor) of CaCl2 starting from 9.00 mM or 4.00 mM CaCl2 (diluted using high-salt Tev cleavage buffer pre-treated with Chelex 100) including a twelfth condition without CaCl2. Final volumes were 25.0 μL in flat bottom, black polystyrene, non-binding surface 96-well half-area microplates (Corning 3686) or 200 μL in flat bottom, black polystyrene, non-binding surface 96-well microplates (Corning 3650). Fluorescence endpoints were measured for EF4n_mFAP2a using excitation wavelength λex = 478 nm and emission wavelength λem = 520 nm, and for EF4n_mFAP2b using excitation wavelength λex = 484 nm and emission wavelength λem = 508 nm. Background fluorescence endpoints of wells with identical chromophore and CaCl2 concentrations lacking protein (substituted for equivalent volumes of high-salt Tev cleavage buffer) were measured in technical triplicate, averaged per condition, and subtracted from protein measurement averages of the same conditions. For non-linear least squares fitting to obtain Kd values, means were fit to a single-binding site isotherm function where Ca^2+-binding sites were modeled independently with a Hill coefficient of 1.

[2] = Fluorescence intensity assays of mFAP variants; type: biochemical
Method: To measure fluorescence intensities of the phenolate form of chromophores, fluorescence was measured on a Synergy Neo2 hybrid multi-mode reader (BioTek) in flat bottom, black polystyrene, non-binding surface 96-well microplates (Corning 3650). Fluorescence intensity was measured in triplicate by exciting at λex = 484 nm and measuring fluorescence emission at λem = 505 nm (or λem = 511 nm for clones harboring the W27 mutation) (Supplementary Fig. 1g, h). The W27 mutation redshifts the peak emission wavelength from λem = ~505 nm to λem = ~511 nm, presumably due to the W27 indole ring donating a hydrogen bond to the imidazolinone moiety of the deprotonated state of DFHBI, which stabilizes the chromophore conjugated π–electron system in the excited state causing the redshift in emission. Fifteen microliters of small-scale purified protein[49] was combined with 185 μL of Na2HPO4-citrate (pH 7.36) buffer supplemented with 150 mM NaCl and 108 nM DFHBI for a final concentration of 100 nM DFHBI. In measuring the excitation spectra from λem = 525 nm of each clone in triplicate (Supplementary Fig. 1i), 30.0 μL of large-scale purified protein[49] was combined with 170 μL of 25.0 mM Tris (pH 8.00) supplemented with 100 mM NaCl and 914 nM DFHBI for a final concentration of 7.77 μM protein and 777 nM DFHBI. In measuring the fluorescence intensity at λex = 484 nm and λem = 509 nm of each clone in triplicate (Supplementary Fig. 1j), 30.0 μL of large-scale purified protein[49] was combined with 170 μL of 25.0 mM Tris (pH 8.00) supplemented with 100 mM NaCl and 653 nM DFHBI for a final concentration of 5.55 μM protein and 555 nM DFHBI. In measuring fluorescence intensity at λex = 468 nm and λem = 530 nm of each clone in technical triplicate (Supplementary Fig. 1k), 24.0 μL of 35.4 µM large-scale purified protein[49] was combined with 1.00 μL of 1.25 µM DFHBI or 1.00 μL of 1.25 µM DFHBI-1T (Lucerna) (from […] chromophore stock solutions dissolved in 0.5% DMSO and 99.5% high-salt Tev cleavage buffer [25.0 mM Tris, 100 mM NaCl, pH 8.00]) for final concentrations of 34.0 μM protein and 50.0 nM chromophore. The mFAP9–DFHBI complex had ~1.1-fold the fluorescence intensity of the mFAP10–DFHBI complex, and the mFAP9–DFHBI-1T complex had ~0.75-fold the fluorescence intensity of the mFAP10–DFHBI-1T complex (Supplementary Fig. 1k). In collecting fluorescence emission spectra by exciting fluorescence at λex = 484 nm and collecting fluorescence emission at λem = 495–650 nm (Supplementary Fig. 6b), and in measuring fluorescence endpoints in techincal triplicate at unique peak excitation and emission wavelengths (Supplementary Fig. 6c), 195 μL of large-scale purified protein[49] was combined with 5.00 μL of 25 mM Tris (pH 8.00) supplemented with 100 mM NaCl and 40.0 μM DFHBI for a final concentration of 10.0 μM protein and 1.00 μM DFHBI.
In measuring fluorescence intensity of small-scale purified proteins[49] (Supplementary Table 1), wells were excited at λex = 488 nm for DFHBI and DFHBI-1T and λex = 505 nm for DFHO, and fluorescence emission measured at λem = 510 nm for DFHBI and DFHBI-1T and λem = 545 nm for DFHO. […]

B1: EF1p2_mFAP2b: positively allosteric Ca2+-responsive mFAP, one EF-hand motif (protein)
chain: SRAAQLLPGTWQVTMTNEDGQTSQGQWHFQPRSPYTMDIVAQGTISDGRPIVGYGKATVKTPDTLDIDITYPSLGNIKAQGQITMDSPTQFKWDAHYKGDKDGDGYISAAEAAAQGLTGTLQRQE
With B1 the “Ca2+-responsiveness / allostery between DFHBI and Ca2+ binding” value ([1]; Ca2+ titration with excess DFHBI) was “positive allostery” and the Kd ([1]; excess DFHBI compared to protein, Hill coefficient of 1) was 2300 µM.

B2: mFAP3: brightest DFHO-binding variant (protein)
chain: SRAAQLLPGTWQATFTNEDGQTSQGQWHFQPRSPYTMDIVAQGTISDGRPIVGYGKATVKTPDTLDIDITWPSLGNIKGQGQITMDSPTQFKWDGTTKGENDFHGRLTGTLQRQE
With B2 the “fluorescence intensity with DFHO, lower (dimmer) than mFAP2b with DFHBI” value ([2]; 10.0 µM DFHO vs 10.0 µM DFHBI) was ~ 10 fold.

B3: mFAP2.3: brightest variant of loop7 library (protein)
chain: SRAAQLLPGTWQVTMTNEDGQTSQGQMHFQPRSPYTMDVVAQGTISDGRPIVGYGKVTVKTPDTLDVDITYPSLGNIKAQGQITMDSPTQFKFDATTKGENDFHGRLTGTLQRQE
With B3 the “increase in fluorescence intensity from the phenolate form of DFHBI from mFAP2.2” value ([2]; pH 7.36) was ~ 1.1 fold.
